Target: T1, TEM-1 β-lactamase (UniProt P62593 24-286)
T1 construct: TEM-1 β-lactamase (class A); whether the construct carries a tag or its signal peptide is not known; also called TEM-1 enzyme; source: E. coli haboring pRSET-K/TEM-1 β-lactamase (lab stock); production procedure in Additional file 1: Methods
Assay: enzyme inhibition assay (nitrocefin hydrolysis, free β-lactamase against inhibitor concentration); 1.5 nM TEM-1 β-lactamase pre-incubated with 0–15 nM BLIP in 50 mM sodium phosphate buffer with 1 mg/mL bovine serum albumin for 2 h at 25 °C; then 21 μM nitrocefin, absorbance at 500 nm; nonlinear fit to Eq. 1; Ki* (equilibrium dissociation constant) equivalent to Ki

T1 sequence (P62593 24-286): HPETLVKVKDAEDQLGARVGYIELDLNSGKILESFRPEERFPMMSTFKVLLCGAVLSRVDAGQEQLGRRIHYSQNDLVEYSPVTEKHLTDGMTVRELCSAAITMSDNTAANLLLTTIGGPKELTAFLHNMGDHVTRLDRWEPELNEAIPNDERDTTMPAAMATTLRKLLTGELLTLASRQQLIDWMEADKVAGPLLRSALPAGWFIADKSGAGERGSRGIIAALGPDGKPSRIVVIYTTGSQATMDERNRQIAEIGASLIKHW

B1: β-Lactamase inhibitory protein (BLIP), recombinant, secreted by P. pastoris (EAEAEF-mature BLIP) (natural protein, Streptomyces clavuligerus)
chain: EAEAEFAGVMTGAKFTQIQFGMTRQQVLDIAGAENCETGGSFGDSIHCRGHAAGDYYAYATFGFTSAAADAKVDSKSQEKLLAPSAPTLTLAKFNQVTVGMTRAQVLATVGQGSCTTWSEYYPAYPSTAGVTLSLSCFDVDGYSSTGFYRGSAHLWFTDGVLQGKRQWDLV
notes: peptide left at the N-terminus after Kex2 cleavage of the α-factor mating signal; the blip gene's own terminator was kept, so no C-terminal vector tags are expected (calculated mass 18,219.25 matches EAEAEF-mature BLIP); also called recombinant BLIP; P. pastoris-expressed BLIP; source: P. pastoris X-33 (pPICZαA/BLIP, methanol induction), secreted; recovered from the culture supernatant without …
Q: For B1, which Ki is on record?
A: 0.55 ± 0.07 nM
